Among the data in article PMC3936760 (Nucleic Acids Research, 2013) are kon values, retold here.

The target of this test is full-length human poly(A)-binding protein (PABP, PABPC1) (human, UniProt P11940 1-636). The test is described as follows: FRET or BRET.
Sequence of full-length human poly(A)-binding protein (PABP, PABPC1) (P11940 whole entry): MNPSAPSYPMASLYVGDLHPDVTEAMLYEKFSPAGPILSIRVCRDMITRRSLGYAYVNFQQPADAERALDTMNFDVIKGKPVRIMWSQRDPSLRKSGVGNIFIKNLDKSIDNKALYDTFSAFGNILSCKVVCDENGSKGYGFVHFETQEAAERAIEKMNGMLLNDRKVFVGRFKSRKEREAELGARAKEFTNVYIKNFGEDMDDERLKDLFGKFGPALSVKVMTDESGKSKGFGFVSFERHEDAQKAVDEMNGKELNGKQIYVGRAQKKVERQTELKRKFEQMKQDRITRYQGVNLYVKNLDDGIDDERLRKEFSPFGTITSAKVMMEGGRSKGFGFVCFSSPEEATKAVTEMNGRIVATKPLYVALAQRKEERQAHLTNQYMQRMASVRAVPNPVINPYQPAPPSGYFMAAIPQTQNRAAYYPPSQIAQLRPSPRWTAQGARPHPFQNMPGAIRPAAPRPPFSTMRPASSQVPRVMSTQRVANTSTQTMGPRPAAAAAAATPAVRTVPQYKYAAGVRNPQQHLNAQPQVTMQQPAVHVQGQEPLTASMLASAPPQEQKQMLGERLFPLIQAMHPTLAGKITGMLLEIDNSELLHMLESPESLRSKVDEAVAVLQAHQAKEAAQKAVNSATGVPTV

B1: GST-tagged human PABP-interacting protein 2 (Paip2) (natural protein, UniProt Q9BPZ3 1-127, looked up)
chain: MKDPSRSSTSPSIINEDVIINGHSHEDDNPFAEYMWMENEEEFNRQIEEELWEEEFIERCFQEMLEEEEEHEWFIPARDLPQTMDQIQDQFNDLVISDGSSLEDLVVKSNLNPNAKEFVPGVKYGNI
The molecule B1 gave a kon of 153000 M⁻¹ s⁻¹.

The term kon denotes a measure of how fast the partners come together. A higher kon goes with fast association.
